Assay results: patent publication US20240398942A1 (CHIA TAI TIANQING PHARMACEUTICAL GROUP, published 2024)
Where a chain is given by its changes, count along the chain named.

B1: humanized antibody huC1H1-V1 (antibody, human IgG2, kappa, V domains shown)
VH: EVQLVESGGGLVKPGGSLRLSCAASGFTFSNYGISWVRQAPGKGLEWVASISSGGDNTYYPDNVKGRFTISRDNAKNSLYLQMNSLRAEDTAVYYCARAGEKAMDYWGQGTLVTVSS
VL: EIVLTQSPATLSLSPGERATLSCRASQTINNNLHWYQQKPGQAPRLLIKYASQSISGIPARFSGSGSGTDFTLTISSLEPEDFAVYFCQQFSSWPLTFGGGTKVEIKR
notes: Human IgG2 / kappa
B2: humanized antibody huC1H1-V2 (antibody, human IgG2, kappa, V domains shown)
VH: B1 VH with A49S
VL: B1 VL
notes: Human IgG2 / kappa
B3: BM1 (dacetuzumab) (antibody, human IgG1, kappa, V domains shown)
VH: EVQLVESGGGLVQPGGSLRLSCAASGYSFTGYYIHWVRQAPGKGLEWVARVIPNAGGTSYNQKFKGRFTLSVDNSKNTAYLQMNSLRAEDTAVYYCAREGIYWWGQGTLVTVSS
VL: DIQMTQSPSSLSASVGDRVTITCRSSQSLVHSNGNTFLHWYQQKPGKAPKLLIYTVSNRFSGVPSRFSGSGSGTDFTLTISSLQPEDFATYFCSQTTHVPWTFGQGTKVEIKR
notes: Benchmark antibody, prepared in-house; also called CD40-BM1; benchmark
B4: mouse anti-CD40 monoclonal antibody C1H1 (antibody, V domains shown)
VH: EVKLVESGGGLVKPGASLKLSCAASGFTFSNYGISWVRQTSDKRLEWVASISSGGDNTYYPDNVKGRFTISRENAKNTLYLQMSSLKSEDTALYYCARAGEKAMDYWGQGTSVTVSS
VL: DIVLTQSPVTLSVTPGDSVSLSCRASQTINNNLHWYQQKSHESPRLLIKYASQSISGIPSRFSGSGSGTDFTLSINSVETEDFGIYFCQQFSSWPLTFGAGTKLELK
notes: Parent mouse antibody from a hybridoma; the mouse constant regions are not; also called Mouse C1H1
B5: chimeric antibody C1H1 (antibody, human IgG1, kappa, V domains shown)
VH: B4 VH
VL: DIVLTQSPVTLSVTPGDSVSLSCRASQTINNNLHWYQQKSHESPRLLIKYASQSISGIPSRFSGSGSGTDFTLSINSVETEDFGIYFCQQFSSWPLTFGAGTKLELKR
notes: also called Chimeric C1H1
B6: BM2 (selicrelumab) (antibody, human IgG2, kappa, V domains shown)
VH: not shown
VL: DIQMTQSPSSVSASVGDRVTITCRASQGIYSWLAWYQQKPGKAPNLLIYTASTLQSGVPSRFSGSGSGTDFTLTISSLQPEDFATYYCQQANIFPLTFGGGTKVEIKR
notes: Benchmark antibody, prepared in-house; also called CD40-BM2; benchmark

The binders below were run against T1, full-length human CD40 on 293T-NF-κB-Luc-CD40 reporter cells (human, UniProt P25942 21-277) (assay: flow cytometry (FACS) on 293T-CD40 cells stably expressing full-length human CD40, PE-labeled goat anti-human IgG Fc, MFI).
T1 construct: Stably expressed full-length human CD40; also called uniprot P25942-1
Method: The binding of the anti-CD40 antibody to 293T-CD40 cells (prepared by Biosion) that stably express full-length human CD40 (uniprot #P25942-1, SEQ ID NO: 30) on the cell membrane was measured by flow cytometry (FACS). According to the instructions of lipofectamine 3000 transfection reagent (Thermo Fisher), 293T-CD40 cells were prepared by transfecting 293T cells with pCMV-T-P plasmid inserted with CD40 coding sequence between EcoRI and XbaI loci. Specifically, 293T-CD40 cells were harvested from cell culture flasks, washed twice, and resuspended in FACS buffer (phosphate buffered saline (PBS) containing 2% v/v of fetal bovine serum). The anti-CD40 antibody of the present application or the benchmark serially 4-fold diluted in the FACS buffer from 80 nM was added at 100 μL/well to a 96-well plate containing 2×10⁵ cells/well. The plate was incubated in an ice bath for 40 min. After the cells were washed twice with the FACS buffer, an affinity-purified R-phycoerythrin-labeled goat anti-human IgG (Fcγ fragment-specific, Jackson Immuno Research, Cat. No. 109-115-098, 1:1000 diluted in the FACS buffer) was added at 100 μL per well. After incubation at 4° C. for 40 min in the dark, the cells were washed thrice and resuspended in the FACS buffer. Fluorescence values were measured using Becton Dickinson FACS Canto II-HTS, and curves of fluorescence value vs. antibody concentration were plotted. Data were analyzed using Graphpad Prism software, and EC₅₀ values were obtained.

| EC50 [nM] | Binder |
| --- | --- |
| 4.95 | B1 |
| 4.64 | B2 |
| 0.375 | B3 |
| 1.44 | B4 |
| 2.13 | B5 |
| 3.52 | B6 |

The binders below were run against T2, human CD40-Fc protein (human, biotinylated (sites not given) in the capture ELISA and the benchmark blocking ELISA; not biotinylated in the ligand blocking ELISA) (assay: capture ELISA: antibody captured on coated goat anti-human IgG F(ab')2, biotinylated human CD40-Fc 1.15 nM, streptavidin-HRP, OD(450-630)).
T2 construct: also called biotinylated human CD40-Fc
Method: (§1) The plate was washed once with a washing buffer (PBS+0.05% v/v of Tween-20, PBST) and then blocked with 200 μL/well blocking buffer (PBST containing 5% w/v of skim milk) for 2 h at 37° C. The plate was washed 4 times, and the anti-CD40 antibody of the present application, BM1, BM2, and a negative control hIgG (human immunoglobulin for intravenous injection (pH 4), Hualan Biological Engineering Inc.) serially 5-fold diluted from 66.7 nM in a PBST containing 2.5% w/v of skim milk was added at 100 μL per well. The plate was incubated for 40 min at 37° C. and washed 4 times. A biotinylated human CD40-Fc protein (amino acid residues 21-193 of SEQ ID NO: 30 linked to the N terminus of amino acid residues 99-330 of SEQ ID NO: 28, dissolved in PBST containing 2.5% w/v of skim milk at a concentration of 1.15 nM) was added at 100 μL/well to a 96-well plate coated with the anti-CD40 antibody. The plate was incubated at 37° C. for 40 min and washed 4 times. An HRP-labeled streptavidin (diluted at 1:10000 in PBST, Jackson Immuno Research, Cat. No. 016-030-084) was added at 100 μL/well, and the plate was incubated at 37° C. for another 40 min. After the last wash, 100 μL/well of ELISA substrate TMB (Innoreagents, Cat. No. TMB-S-002) was added and the plate was incubated at room temperature. After 3-10 min, the reaction was stopped by adding 1 M H₂SO₄ at 50 µL/well, and the absorbance of each well was read on a microplate reader using the dual wavelength mode (TMB detection wavelength: 450 nm, reference wavelength: 630 nm). Curves of OD(450-630) values vs. antibody concentration were plotted. Data were analyzed using Graphpad Prism software, and EC₅₀ values were obtained.

| EC50 [nM] | Binder |
| --- | --- |
| 0.574 | B1 |
| 0.424 | B2 |
| 0.101 | B3 |
| 0.141 | B4 |
| 0.198 | B5 |
| 0.72 | B6 |

Molecular target: T2, human CD40-Fc protein
Assay: as above
Remark: another data set of the same source
Method: as §1

| EC50 [nM] | Binder |
| --- | --- |
| 0.59 | B3 |
| 0.203 | B4 |
| 0.343 | B5 |
| 1.34 | B6 |

The binders below were run against T2, human CD40-Fc protein (assay: competitive ELISA: human CD40-Fc coated, antibody titrated, blocked ligand biotinylated human CD40L-his (95 ng/mL), streptavidin-HRP, OD(450-630)).
Method: The ability of the anti-CD40 antibody to block the binding of CD40 to CD40L was determined by competitive ELISA. Briefly, a human CD40-Fc protein (amino acid residues 21-193 of SEQ ID NO: 30 linked to the N terminus of amino acid residues 99-330 of SEQ ID NO: 28) dissolved in the immobilization buffer (carbonate/bicarbonate buffer) at a concentration of 2 μg/mL was immobilized on a 96-well plate at 100 μL/well and incubated overnight at 4° C. The next day, the plate was washed once with a washing buffer (PBS+0.05% v/v of Tween-20, PBST) before a PBST containing 5% w/v of skim milk was added. The plate was then incubated at 37° C. for 2 h for blocking. The plate was then washed 4 times with the washing buffer.
The anti-CD40 antibody of the present application or the benchmark was serially 5-fold diluted from 200 nM in a PBST containing 2.5% w/v of skim milk, and the serially diluted anti-CD40 antibody or benchmark was added at 100 μL/well to a plate coated with CD40-Fc protein and incubated at 37° C. for 40 min. The plate was then washed 4 times with the washing buffer before a biotinylated human CD40L-his protein (Sino Biological Inc., Cat. No. 10239-H08E, 95 ng/mL) was added at 100 μL per well. The plate was then incubated for 40 min at 37° C. The plate was washed again with the washing buffer. Then, an HRP-labeled streptavidin (Jackson Immunoresearch, Cat. No. 016-030-084, 1:10000 diluted in PBST buffer) was added at 100 μL/well and the plate was incubated at 37° C. for 40 min. The plate was washed again with the washing buffer. Finally, TMB was added and the reaction was stopped by adding 1 M H₂SO₄. The absorbance of each well was read on a microplate reader using the dual wavelength mode (TMB detection wavelength: 450 nm, reference wavelength: 630 nm). Curves of OD(450-630) values vs. antibody concentration were plotted. Data were analyzed using Graphpad Prism software, and IC₅₀ values were obtained.

| IC50 [nM] | Binder |
| --- | --- |
| 7.91 | B1 |
| 6.1 | B2 |
| 2.01 | B3 |
| 6.46 | B4 |
| 6.97 | B5 |
| 7.22 | B6 |
